Data published in patent US20150024402A1.

How the values were obtained:
[1] = target: Human Serum Albumin (HSA) (human) (UniProt P02768); assay: LSPR absorbance shift of HSA-conjugated gold nanorods; carboxyl groups blocked with BSA at 200 ug/mL, 60 min incubation
[2] = target: Human Serum Albumin (HSA) (human) (UniProt P02768); assay: LSPR absorbance shift of HSA-conjugated gold nanorods; 37.5 ug/mL HSA (partial coverage), BSA block, 60 min incubation
[3] = target: Human Serum Albumin (HSA) (human) (UniProt P02768); assay: LSPR absorbance shift of HSA-conjugated gold nanorods; 18.75 ug/mL HSA (partial coverage), BSA block, 60 min incubation
[4] = target: Human Serum Albumin (HSA) (human) (UniProt P02768); assay: LSPR absorbance shift of HSA-conjugated gold nanorods; carboxyl groups blocked with ovalbumin at 200 ug/mL, 60 min incubation
[5] = target: Human Serum Albumin (HSA) (human) (UniProt P02768); assay: LSPR absorbance shift of HSA-conjugated gold nanorods; carboxyl groups blocked with mPEG-NH2 at 16700 ug/mL, 60 min incubation
[6] = target: Human Serum Albumin (HSA) (human) (UniProt P02768); assay: LSPR absorbance shift of HSA-conjugated gold nanorods; 600 ug/mL HSA (full coverage), BSA block, 60 min incubation; filing says the value deviates through ligand depletion
[7] = target: Human Serum Albumin (HSA) (human) (UniProt P02768); assay: LSPR absorbance shift of HSA-conjugated gold nanorods in suspension, dose response at equilibrium; 600 ug/mL HSA (full coverage), BSA block, 30 min incubation; filing says the value deviates through ligand depletion
[8] = target: Human Serum Albumin (HSA) (human) (UniProt P02768); assay: LSPR absorbance shift of HSA-conjugated gold nanorods in suspension, dose response at equilibrium; 18.75 ug/mL HSA (partial coverage), BSA block, 30 min incubation

UniProt P02768, sequence (P02768 25-609 limits assumed): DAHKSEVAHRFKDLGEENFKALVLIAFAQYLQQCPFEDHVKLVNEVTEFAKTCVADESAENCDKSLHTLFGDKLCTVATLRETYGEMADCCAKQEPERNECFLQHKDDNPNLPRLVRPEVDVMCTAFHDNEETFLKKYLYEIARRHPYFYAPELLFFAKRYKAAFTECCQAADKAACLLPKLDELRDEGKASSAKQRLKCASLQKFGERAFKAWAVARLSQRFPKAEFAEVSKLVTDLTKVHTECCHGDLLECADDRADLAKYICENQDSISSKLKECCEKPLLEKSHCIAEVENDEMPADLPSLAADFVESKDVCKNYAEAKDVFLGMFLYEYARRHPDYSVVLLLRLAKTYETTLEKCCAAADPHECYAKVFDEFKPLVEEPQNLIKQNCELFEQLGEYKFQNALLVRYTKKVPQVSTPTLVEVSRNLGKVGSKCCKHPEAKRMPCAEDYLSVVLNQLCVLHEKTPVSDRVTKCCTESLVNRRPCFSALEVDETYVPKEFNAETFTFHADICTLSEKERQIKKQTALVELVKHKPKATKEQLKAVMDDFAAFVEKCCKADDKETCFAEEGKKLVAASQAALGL

## Anti-Human Serum Albumin monoclonal antibody (ab18081, available from Abcam)
[1]
  Kd: 8.44 nM
[2]
  Kd: 5.5 nM
[3]
  Kd: 3.8 nM
[4]
  Kd: 5.22 nM
[5]
  Kd: 2.5 nM
[6]
  Kd: 252 nM
[7]
  Kd: 99.4 nM
[8]
  Kd: 6.41 nM
